B1: Caspase-8 (Homo sapiens), Q14790 (parent)
chain: MDFSRNLYDIGEQLDSEDLASLKFLSLDYIPQRKQEPIKDALMLFQRLQEKRMLEESNLSFLKELLFRINRLDLLITYLNTRKEEMERELQTPGRAQISAYRVMLYQISEEVSRSELRSFKFLLQEEISKCKLDDDMNLLDIFIEMEKRVILGEGKLDILKRVCAQINKSLLKIINDYEEFSKERSSSLEGSPDEFSNGEELCGVMTISDSPREQDSESQTLDKVYQMKSKPRGYCLIINNHNFAKAREKVPKLHSIRDRNGTHLDAGALTTTFEELHFEIKPHDDCTVEQIYEILKIYQLMDHSNMDCFICCILSHGDKGIIYGTDGQEAPIYELTSQFTGLKCPSLAGKPKVFFIQACQGDNYQKGIPVETDSEEQPYLEMDLSSPQTRYIPDEADFLLGMATVNNCVSYRNPAEGTWYIQSLCQSLRERCPRGDDILTILTEVNYEVSNKDDKKNMGKQMPQPTFTLRKKLVFPSD
B2: Androgen receptor (Homo sapiens), P10275 (parent)
chain: MEVQLGLGRVYPRPPSKTYRGAFQNLFQSVREVIQNPGPRHPEAASAAPPGASLLLLQQQQQQQQQQQQQQQQQQQQQQQETSPRQQQQQQGEDGSPQAHRRGPTGYLVLDEEQQPSQPQSALECHPERGCVPEPGAAVAASKGLPQQLPAPPDEDDSAAPSTLSLLGPTFPGLSSCSADLKDILSEASTMQLLQQQQQEAVSEGSSSGRAREASGAPTSSKDNYLGGTSTISDNAKELCKAVSVSMGLGVEALEHLSPGEQLRGDCMYAPLLGVPPAVRPTPCAPLAECKGSLLDDSAGKSTEDTAEYSPFKGGYTKGLEGESLGCSGSAAAGSSGTLELPSTLSLYKSGALDEAAAYQSRDYYNFPLALAGPPPPPPPPHPHARIKLENPLDYGSAWAAAAAQCRYGDLASLHGAGAAGPGSGSPSAAASSSWHTLFTAEEGQLYGPCGGGGGGGGGGGGGGGGGGGGGGGEAGAVAPYGYTRPPQGLAGQESDFTAPDVWYPGGMVSRVPYPSPTCVKSEMGPWMDSYSGPYGDMRLETARDHVLPIDYYFPPQKTCLICGDEASGCHYGALTCGSCKVFFKRAAEGKQKYLCASRNDCTIDKFRRKNCPSCRLRKCYEAGMTLGARKLKKLGNLKLQEEGEASSTTSPTEETTQKLTVSHIEGYECQPIFLNVLEAIEPGVVCAGHDNNQPDSFAALLSSLNELGERQLVHVVKWAKALPGFRNLHVDDQMAVIQYSWMGLMVFAMGWRSFTNVNSRMLYFAPDLVFNEYRMHKSRMYSQCVRMRHLSQEFGWLQITPQEFLCMKALLLFSIIPVDGLKNQKFFDELRMNYIKELDRIIACKRKNPTSCSRRFYQLTKLLDSVQPIARELHQFTFDLLIKSHMVSVDFPEMMAEIISVQVPKILSGKVKPIYFHTQ

Variants of: B1
Details: with andr_human AR

Row | effect of a mutation on the interaction | Variant
1 | disrupting interaction strength | MDFSRNLYDIGEQLDSEDLASLKFLSLDYIPQRKQEPIKDALMLFQRLQEKRMLEESNLSFLKELLFRINRLDLLITYLNTRKEEMERELQTPGRAQISAYRVMLYQISEEVSRSELRSFKFLLQEEISKCKLDDDMNLLDIFIEMEKRVILGEGKLDILKRVCAQINKSLLKAANDYEEFSKERSSSLEGSPDEFSNGEELCGVMTISDSPREQDSESQTLDKVYQMKSKPRGYCLIINNHNFAKAREKVPKLHSIRDRNGTHLDAGALTTTFEELHFEIKPHDDCTVEQIYEILKIYQLMDHSNMDCFICCILSHGDKGIIYGTDGQEAPIYELTSQFTGLKCPSLAGKPKVFFIQACQGDNYQKGIPVETDSEEQPYLEMDLSSPQTRYIPDEADFLLGMATVNNCVSYRNPAEGTWYIQSLCQSLRERCPRGDDILTILTEVNYEVSNKDDKKNMGKQMPQPTFTLRKKLVFPSD [I174A;I175A]

Variants of: B1
Details: with andr_human AR, P10275

Row | effect of a mutation on the interaction | Variant
2 | disrupting interaction strength | MDFSRNLYDIGEQLDSEDLASLKFLSLDYIPQRKQEPIKDALMLAQRLQEKRMLEESNLSFLKELLFRINRLDLLITYLNTRKEEMERELQTPGRAQISAYRVMLYQISEEVSRSELRSFKFLLQEEISKCKLDDDMNLLDIFIEMEKRVILGEGKLDILKRVCAQINKSLLKIINDYEEFSKERSSSLEGSPDEFSNGEELCGVMTISDSPREQDSESQTLDKVYQMKSKPRGYCLIINNHNFAKAREKVPKLHSIRDRNGTHLDAGALTTTFEELHFEIKPHDDCTVEQIYEILKIYQLMDHSNMDCFICCILSHGDKGIIYGTDGQEAPIYELTSQFTGLKCPSLAGKPKVFFIQACQGDNYQKGIPVETDSEEQPYLEMDLSSPQTRYIPDEADFLLGMATVNNCVSYRNPAEGTWYIQSLCQSLRERCPRGDDILTILTEVNYEVSNKDDKKNMGKQMPQPTFTLRKKLVFPSD [F45A]

Variants of: B2
Details: with casp8_human CASP8, Q14790

Row | effect of a mutation on the interaction | Variant
3 | disrupting interaction | L26A;F27A

Source: IntAct's records for PubMed 17170703
